Source: paper PMC4974071

Experiments:
[1] = target: T1, BCL11A-S (short isoform of BCL11A), wild-type, Q9H165-3; assay: BRET assay; conditions: chain shown with the change; HEK293 cells; donor Renilla luciferase fusion, acceptor YFP fusion; n = 3; parent: est. 0.36; read off a plot
T1 chain: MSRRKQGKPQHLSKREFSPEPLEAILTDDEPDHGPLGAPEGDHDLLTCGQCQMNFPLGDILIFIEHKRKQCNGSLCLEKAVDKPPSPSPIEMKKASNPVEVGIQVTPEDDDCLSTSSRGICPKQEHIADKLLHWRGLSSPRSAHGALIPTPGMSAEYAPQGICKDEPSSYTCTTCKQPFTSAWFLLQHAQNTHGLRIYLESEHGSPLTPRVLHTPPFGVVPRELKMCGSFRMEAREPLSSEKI

[2] = target: T2, BCL11A-L (long isoform of BCL11A), wild-type, Q9H165-2; assay: BRET assay; conditions: chain shown with the change; HEK293 cells; donor Renilla luciferase fusion, acceptor YFP fusion; n = 3; parent: est. 0.30; read off a plot
T2 chain: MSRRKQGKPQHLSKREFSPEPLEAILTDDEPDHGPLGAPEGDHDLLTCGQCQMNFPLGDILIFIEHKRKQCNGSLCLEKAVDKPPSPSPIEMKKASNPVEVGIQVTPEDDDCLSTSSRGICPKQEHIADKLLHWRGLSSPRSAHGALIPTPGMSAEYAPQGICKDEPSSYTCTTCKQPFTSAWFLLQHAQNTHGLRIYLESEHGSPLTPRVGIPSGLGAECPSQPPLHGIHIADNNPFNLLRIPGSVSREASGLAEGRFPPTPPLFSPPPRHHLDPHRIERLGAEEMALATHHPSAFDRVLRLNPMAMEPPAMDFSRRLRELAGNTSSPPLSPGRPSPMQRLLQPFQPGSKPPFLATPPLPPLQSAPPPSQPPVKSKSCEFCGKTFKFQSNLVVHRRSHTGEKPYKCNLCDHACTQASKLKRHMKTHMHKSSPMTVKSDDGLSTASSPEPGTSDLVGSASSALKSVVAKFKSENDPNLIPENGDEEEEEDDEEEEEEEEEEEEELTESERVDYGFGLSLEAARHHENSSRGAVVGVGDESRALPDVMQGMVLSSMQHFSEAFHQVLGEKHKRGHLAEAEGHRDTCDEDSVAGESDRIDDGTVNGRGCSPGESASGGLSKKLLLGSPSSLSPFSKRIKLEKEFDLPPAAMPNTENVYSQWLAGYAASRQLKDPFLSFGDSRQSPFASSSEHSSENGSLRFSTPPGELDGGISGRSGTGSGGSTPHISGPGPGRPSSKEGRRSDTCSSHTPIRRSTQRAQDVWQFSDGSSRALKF

B1: BCL11A-L (long isoform of BCL11A), wild-type, Q9H165-2 p.His66Gln (protein)
chain: MSRRKQGKPQHLSKREFSPEPLEAILTDDEPDHGPLGAPEGDHDLLTCGQCQMNFPLGDILIFIEQKRKQCNGSLCLEKAVDKPPSPSPIEMKKASNPVEVGIQVTPEDDDCLSTSSRGICPKQEHIADKLLHWRGLSSPRSAHGALIPTPGMSAEYAPQGICKDEPSSYTCTTCKQPFTSAWFLLQHAQNTHGLRIYLESEHGSPLTPRVGIPSGLGAECPSQPPLHGIHIADNNPFNLLRIPGSVSREASGLAEGRFPPTPPLFSPPPRHHLDPHRIERLGAEEMALATHHPSAFDRVLRLNPMAMEPPAMDFSRRLRELAGNTSSPPLSPGRPSPMQRLLQPFQPGSKPPFLATPPLPPLQSAPPPSQPPVKSKSCEFCGKTFKFQSNLVVHRRSHTGEKPYKCNLCDHACTQASKLKRHMKTHMHKSSPMTVKSDDGLSTASSPEPGTSDLVGSASSALKSVVAKFKSENDPNLIPENGDEEEEEDDEEEEEEEEEEEEELTESERVDYGFGLSLEAARHHENSSRGAVVGVGDESRALPDVMQGMVLSSMQHFSEAFHQVLGEKHKRGHLAEAEGHRDTCDEDSVAGESDRIDDGTVNGRGCSPGESASGGLSKKLLLGSPSSLSPFSKRIKLEKEFDLPPAAMPNTENVYSQWLAGYAASRQLKDPFLSFGDSRQSPFASSSEHSSENGSLRFSTPPGELDGGISGRSGTGSGGSTPHISGPGPGRPSSKEGRRSDTCSSHTPIRRSTQRAQDVWQFSDGSSRALKF
response [1]: 0.013
response [2]: 0.11

B2: BCL11A-L (long isoform of BCL11A), wild-type, Q9H165-2 p.Cys48Phe (protein)
chain: MSRRKQGKPQHLSKREFSPEPLEAILTDDEPDHGPLGAPEGDHDLLTFGQCQMNFPLGDILIFIEHKRKQCNGSLCLEKAVDKPPSPSPIEMKKASNPVEVGIQVTPEDDDCLSTSSRGICPKQEHIADKLLHWRGLSSPRSAHGALIPTPGMSAEYAPQGICKDEPSSYTCTTCKQPFTSAWFLLQHAQNTHGLRIYLESEHGSPLTPRVGIPSGLGAECPSQPPLHGIHIADNNPFNLLRIPGSVSREASGLAEGRFPPTPPLFSPPPRHHLDPHRIERLGAEEMALATHHPSAFDRVLRLNPMAMEPPAMDFSRRLRELAGNTSSPPLSPGRPSPMQRLLQPFQPGSKPPFLATPPLPPLQSAPPPSQPPVKSKSCEFCGKTFKFQSNLVVHRRSHTGEKPYKCNLCDHACTQASKLKRHMKTHMHKSSPMTVKSDDGLSTASSPEPGTSDLVGSASSALKSVVAKFKSENDPNLIPENGDEEEEEDDEEEEEEEEEEEEELTESERVDYGFGLSLEAARHHENSSRGAVVGVGDESRALPDVMQGMVLSSMQHFSEAFHQVLGEKHKRGHLAEAEGHRDTCDEDSVAGESDRIDDGTVNGRGCSPGESASGGLSKKLLLGSPSSLSPFSKRIKLEKEFDLPPAAMPNTENVYSQWLAGYAASRQLKDPFLSFGDSRQSPFASSSEHSSENGSLRFSTPPGELDGGISGRSGTGSGGSTPHISGPGPGRPSSKEGRRSDTCSSHTPIRRSTQRAQDVWQFSDGSSRALKF
response [1]: 0.009
response [2]: 0.065

B3: BCL11A-L (long isoform of BCL11A), wild-type, Q9H165-2 p.Thr47Pro (protein)
chain: MSRRKQGKPQHLSKREFSPEPLEAILTDDEPDHGPLGAPEGDHDLLPCGQCQMNFPLGDILIFIEHKRKQCNGSLCLEKAVDKPPSPSPIEMKKASNPVEVGIQVTPEDDDCLSTSSRGICPKQEHIADKLLHWRGLSSPRSAHGALIPTPGMSAEYAPQGICKDEPSSYTCTTCKQPFTSAWFLLQHAQNTHGLRIYLESEHGSPLTPRVGIPSGLGAECPSQPPLHGIHIADNNPFNLLRIPGSVSREASGLAEGRFPPTPPLFSPPPRHHLDPHRIERLGAEEMALATHHPSAFDRVLRLNPMAMEPPAMDFSRRLRELAGNTSSPPLSPGRPSPMQRLLQPFQPGSKPPFLATPPLPPLQSAPPPSQPPVKSKSCEFCGKTFKFQSNLVVHRRSHTGEKPYKCNLCDHACTQASKLKRHMKTHMHKSSPMTVKSDDGLSTASSPEPGTSDLVGSASSALKSVVAKFKSENDPNLIPENGDEEEEEDDEEEEEEEEEEEEELTESERVDYGFGLSLEAARHHENSSRGAVVGVGDESRALPDVMQGMVLSSMQHFSEAFHQVLGEKHKRGHLAEAEGHRDTCDEDSVAGESDRIDDGTVNGRGCSPGESASGGLSKKLLLGSPSSLSPFSKRIKLEKEFDLPPAAMPNTENVYSQWLAGYAASRQLKDPFLSFGDSRQSPFASSSEHSSENGSLRFSTPPGELDGGISGRSGTGSGGSTPHISGPGPGRPSSKEGRRSDTCSSHTPIRRSTQRAQDVWQFSDGSSRALKF
response [1]: 0.001
response [2]: 0.11
